The chains are these.
B1: HuPb19 (peptide)
peptide: Ac-GPPERLEFR-NH2
notes: acetylated nonapeptide amide
B2: HuPb11 (peptide)
peptide: Ac-WGLPEHLER-NH2
notes: acetylated nonapeptide amide
B3: HuPb28 (peptide)
peptide: Ac-MLIYYSSYL-NH2
notes: acetylated nonapeptide amide; also called HuPb28 peptide
B4: HuPb20 (peptide)
peptide: Ac-MIYWYSSWL-NH2
notes: acetylated nonapeptide amide
B5: HuPb22 (peptide)
peptide: Ac-LIYWYSSWL-NH2
notes: acetylated nonapeptide amide
B6: HuPb30 (peptide)
peptide: Ac-MIYWYSNWL-NH2
notes: acetylated nonapeptide amide
B7: HuPb31 (peptide)
peptide: Ac-MIYWYNSWL-NH2
notes: acetylated nonapeptide amide
B8: HuPb26 (peptide)
peptide: Ac-LILWYSSWP-NH2
notes: acetylated nonapeptide amide
B9: HuPb21 (peptide)
peptide: Ac-MIYWYSSWI-NH2
notes: acetylated nonapeptide amide
B10: HuPb33 (peptide)
peptide: Ac-MIYWYSSWD-NH2
notes: acetylated nonapeptide amide
B11: HuPb24 (peptide)
peptide: Ac-LILWYSSWL-NH2
notes: acetylated nonapeptide amide
B12: HuPb23 (peptide)
peptide: Ac-LILYYYYYL-NH2
notes: acetylated nonapeptide amide
B13: HuPb29 (peptide)
peptide: Ac-FILIYSNLF-NH2
notes: acetylated nonapeptide amide
B14: HuPb17 (peptide)
peptide: Ac-KGESGFRDR-NH2
notes: acetylated nonapeptide amide
B15: HuPb18 (peptide)
peptide: Ac-GSLPRHLFR-NH2
notes: acetylated nonapeptide amide
B16: HuPb10 (peptide)
peptide: Ac-WPLPLLEER-NH2
notes: acetylated nonapeptide amide
B17: HuPb14 (peptide)
peptide: Ac-PYEAQELHE-NH2
notes: acetylated nonapeptide amide
B18: HuPb34 (peptide)
peptide: Ac-MIDWYSSWP-NH2
notes: acetylated nonapeptide amide
B19: HuPb32 (peptide)
peptide: Ac-DIYWYSSWP-NH2
notes: acetylated nonapeptide amide
B20: HuPb15 (peptide)
peptide: Ac-GPLPEHELL-NH2
notes: acetylated nonapeptide amide
B21: HuPb27 (peptide)
peptide: Ac-LLYWYSSWP-NH2
notes: acetylated nonapeptide amide

These results are taken from patent US20110053840A1 (MERCK SERONO S A, published 2011).

This test addresses T1, HLA-DR2b molecules purified from L cells co-transfected with HLA-DRA and HLA-DRB1*1501 (human).
T1 construct: also called purified DR2b molecules
Kind of test: competitive ELISA (DELFIA) on purified HLA-DR2b, displacement of biotinylated CLIP 97-120. From the text: DR2b molecules were purified from L cells that had been co-transfected with HLA-DRA and HLA-DRB1*1501, by affinity chromatography using the HLA-DR-specific L243 antibody, as described in Weissert et al. (2001), MHC class II-regulated central nervous system autoaggression and T cell responses in peripheral lymphoid tissues are dissociated in myelin oligodendrocyte glycoprotein-induced experimental autoimmune encephalomyelitits, J. Immunol. […] The above publication is incorporated into the present application by reference. The binding assays were performed with a competitive ELISA based on a dissociation-enhanced lanthanide fluoroimmunoassay (Wallac, Turku, Finland). For the competitive ELISA, a 50 nM solution of DR2b molecules was incubated for 48 hours at 37° C. with 50 nM biotinylated CLIP 97-120 in the presence of 250 nM acetylated nonapeptide amide sublibrary or with various concentrations of competitor peptides ranging from 1 nM to 100 μM.
The affinity of each of these peptides for the HLA-DR2b molecule was measured using the ELISA.
In general terms: An ELISA detects its analyte on a solid surface through an enzyme-linked reagent.
Consider B1, for which the IC50 (commonly the concentration that gives 50% inhibition) was more than 100000 nM.
The value for B2 was more than 100000 nM; that for B3 was less than 1 nM.
The value for B4 was 1 nM; that for B5 was 2 nM.
The value for B6 was less than 1 nM; that for B7 was less than 1 nM; that for B8 was 1 nM.
Molecule B9 returned an IC50 of 1 nM.
The value for B10 was 1 nM; that for B11 was 2 nM; that for B12 was 154 nM.
The value for B13 was 2 nM; that for B14 was more than 100000 nM.
The value for B15 was 43800 nM; that for B16 was 33900 nM.
Turning to B17, the IC50 is more than 100000 nM.
In the case of B18, the half-maximal inhibitory concentration (IC50) came out at 1 nM.
The value for B19 was less than 1 nM; that for B20 was 46700 nM.
The value for B21 was less than 1 nM.
